Reference: PMC2995059

Target: HA-tagged full-size GAM (GAM/ZFp/ZNF512B) (human) (UniProt Q96KM6)
Assay: co-IP

Chain of UniProt Q96KM6 (Q96KM6 whole entry): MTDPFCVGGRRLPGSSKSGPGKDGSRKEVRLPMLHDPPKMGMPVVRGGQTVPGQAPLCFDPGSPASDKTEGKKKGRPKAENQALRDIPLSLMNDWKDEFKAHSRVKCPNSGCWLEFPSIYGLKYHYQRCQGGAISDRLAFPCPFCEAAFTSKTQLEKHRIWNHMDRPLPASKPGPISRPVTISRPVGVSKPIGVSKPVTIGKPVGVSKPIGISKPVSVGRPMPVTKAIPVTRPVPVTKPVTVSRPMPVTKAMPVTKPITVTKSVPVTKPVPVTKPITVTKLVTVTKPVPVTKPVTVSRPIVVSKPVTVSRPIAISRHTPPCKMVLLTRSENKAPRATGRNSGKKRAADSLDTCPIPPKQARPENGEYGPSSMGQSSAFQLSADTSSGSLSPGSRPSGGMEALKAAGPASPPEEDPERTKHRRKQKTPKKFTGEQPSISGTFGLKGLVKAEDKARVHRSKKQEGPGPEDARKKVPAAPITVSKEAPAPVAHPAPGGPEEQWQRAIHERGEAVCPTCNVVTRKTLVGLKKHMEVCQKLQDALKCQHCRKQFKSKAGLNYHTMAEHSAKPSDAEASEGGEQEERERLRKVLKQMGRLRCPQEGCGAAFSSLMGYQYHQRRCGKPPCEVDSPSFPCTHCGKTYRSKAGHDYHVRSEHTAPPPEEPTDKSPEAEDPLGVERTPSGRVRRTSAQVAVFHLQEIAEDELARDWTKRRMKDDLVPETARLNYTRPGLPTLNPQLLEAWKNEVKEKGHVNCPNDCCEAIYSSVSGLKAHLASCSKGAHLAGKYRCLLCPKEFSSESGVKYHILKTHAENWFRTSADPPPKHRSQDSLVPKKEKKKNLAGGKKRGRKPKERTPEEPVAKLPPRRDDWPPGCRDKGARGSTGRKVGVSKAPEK

B1: endogenous Drosha (enzyme)
chain: MMQGNTCHRMSFHPGRGCPRGRGGHGARPSAPSFRPQNLRLLHPQQPPVQYQYEPPSAPSTTFSNSPAPNFLPPRPDFVPFPPPMPPSAQGPLPPCPIRPPFPNHQMRHPFPVPPCFPPMPPPMPCPNNPPVPGAPPGQGTFPFMMPPPSMPHPPPPPVMPQQVNYQYPPGYSHHNFPPPSFNSFQNNPSSFLPSANNSSSPHFRHLPPYPLPKAPSERRSPERLKHYDDHRHRDHSHGRGERHRSLDRRERGRSPDRRRQDSRYRSDYDRGRTPSRHRSYERSRERERERHRHRDNRRSPSLERSYKKEYKRSGRSYGLSVVPEPAGCTPELPGEIIKNTDSWAPPLEIVNHRSPSREKKRARWEEEKDRWSDNQSSGKDKNYTSIKEKEPEETMPDKNEEEEEELLKPVWIRCTHSENYYSSDPMDQVGDSTVVGTSRLRDLYDKFEEELGSRQEKAKAARPPWEPPKTKLDEDLESSSESECESDEDSTCSSSSDSEVFDVIAEIKRKKAHPDRLHDELWYNDPGQMNDGPLCKCSAKARRTGIRHSIYPGEEAIKPCRPMTNNAGRLFHYRITVSPPTNFLTDRPTVIEYDDHEYIFEGFSMFAHAPLTNIPLCKVIRFNIDYTIHFIEEMMPENFCVKGLELFSLFLFRDILELYDWNLKGPLFEDSPPCCPRFHFMPRFVRFLPDGGKEVLSMHQILLYLLRCSKALVPEEEIANMLQWEELEWQKYAEECKGMIVTNPGTKPSSVRIDQLDREQFNPDVITFPIIVHFGIRPAQLSYAGDPQYQKLWKSYVKLRHLLANSPKVKQTDKQKLAQREEALQKIRQKNTMRREVTVELSSQGFWKTGIRSDVCQHAMMLPVLTHHIRYHQCLMHLDKLIGYTFQDRCLLQLAMTHPSHHLNFGMNPDHARNSLSNCGIRQPKYGDRKVHHMHMRKKGINTLINIMSRLGQDDPTPSRINHNERLEFLGDAVVEFLTSVHLYYLFPSLEEGGLATYRTAIVQNQHLAMLAKKLELDRFMLYAHGPDLCRESDLRHAMANCFEALIGAVYLEGSLEEAKQLFGRLLFNDPDLREVWLNYPLHPLQLQEPNTDRQLIETSPVLQKLTEFEEAIGVIFTHVRLLARAFTLRTVGFNHLTLGHNQRMEFLGDSIMQLVATEYLFIHFPDHHEGHLTLLRSSLVNNRTQAKVAEELGMQEYAITNDKTKRPVALRTKTLADLLESFIAALYIDKDLEYVHTFMNVCFFPRLKEFILNQDWNDPKSQLQQCCLTLRTEGKEPDIPLYKTLQTVGPSHARTYTVAVYFKGERIGCGKGPSIQQAEMGAAMDALEKYNFPQMAHQKRFIERKYRQELKEMRWEREHQEREPDETEDIKK
- reduction of co-precipitated Drosha after RNase A pre-treatment of the extract: 50%
